Results reported in patent US20020009436A1, “Methods and compositions for inhibiting adhesion by microorganisms” (priority 1999, published 2002).

Columns and labels:
[1] = system: Type 1-fimbriated E. coli; assay: Flow cytometric adhesion of type 1-fimbriated E. coli to UECs; type: cell-based
Description: Methods for handling polyphenol oxidase and asparaginase and for observing adhesion by microorganisms were generally as described in the previous Examples with variations to adapt these methods to epithelial cells.
The bacteria were labeled intracellularly with the fluorescein dye CFDA-SE. Median fluorescence intensity of the UECs was taken as a measure of the number of bacteria attached to them. In the Figures below, median fluorescence is converted to % adhesion using control conditions (UEC+untreated bacteria) as 100%.

[2] = system: "trypsin-like" protease activity of P. gingivalis; assay: Trypsin-like protease activity of P. gingivalis cells (BAPNA); type: cell-based; conditions: asparaginase 20 U/ml, polyphenol oxidase 80 U/ml
Procedure: Cell suspensions of P. gingivalis were adjusted up to 1.3 OD at 540 nm in PB. A 100 μl volume of 700 μg/ml BAPNA (benzoyl-DL-arginine-p-nitroanilide) was added to 3 ml of cell suspension. The cells were incubated at 37° C. for different periods of time. The blank contained BAPNA and buffer in the same proportion as P. gingivalis cell suspension. Tubes were centrifuged and the subsequent supernatant was diluted 1:3 and read at 405 nm. Asparaginase and polyphenol oxidase were 20 and 80 U/ml, respectively.

[3] = system: type 1-fimbriated and P-fimbriated E. coli; assay: Growth inhibition of E. coli; type: cell-based
Procedure: Similar and/or art recognized methods were used to monitor the effects of asparaginase on growth of other microbes including two strains of E. coli, S. pyogenes, Klebsiella pneumoniae, Bacillus cereus, and Proteus vulgaris. Both type 1-fimbriated and P-fimbriated E. coli were incubated with polyphenol oxidase, asparaginase, and ampicillin to test the ability of these agents to inhibit the growth of the bacteria.

S. pneumoniae = assay: Adhesion of pneumococci to buccal cells; type: cell-based; conditions: strain 6303
Procedure: Methods for handling polyphenol oxidase and asparaginase and for observing adhesion by microorganisms were generally as described in the previous Examples with variations to adapt these methods to these bacteria and to buccal cells. In particular, adhesion was measured in a manner similar to that just described for S. pyogenes.

S. pyogenes = assay: Collagen binding assay, S. pyogenes; type: cell-based
Procedure: Wells were filled with 1 mg/ml soluble collagen overnight at 4° C. Control wells were coated with 1% BSA. The protein solutions were removed and permitted to stand at 37° C. for 1 h. A solution of 2% BSA was added to the wells to block unoccupied sites and prevent non-specific binding of bacteria. After 30 min, BSA was removed and the wells were washed once with distilled water. Finally, the bacterial suspensions (100 μl, OD 1.4) were added to the plates and incubated at 37° C. for 2 h. Unbound bacteria were removed by washing the wells three times with PBS containing 0.01% Tween 20. The wells were dried at 37° C. for 30 min and stained with crystal violet for 15 min. Wells were rinsed with distilled water and dried at 37° C. for 2 h. After adding 100 μl of 95% (v/v) ethanol to each well the plates were then shaken to release the stain and a reading of 550 nm was carried out.

[4] = system: E. coli / urinary epithelial cells (UECs); assay: Binding of E. coli to urinary epithelial cells, microscopy (Experiment 1); type: cell-based; conditions: FIG. 4; greater with increasing concentration or duration of incubation
Procedure: Urinary epithelial cells (UEC) were obtained by a method known to those of skill in the art. Briefly, the cells were obtained by centrifugation (5000×g) of 200 ml of clean-catch-collected first morning male urine. Cells were washed 3× in PBS and suspended to a density of 1×10^9 cells/ml in an end-over-end apparatus. After 30 minutes mixtures were collected on polycarbonate filters (pore size=10 μm) and washed with three volumes of cold PBS. Filters were pressed onto glass microscope slides which are then heat-fixed and stained with crystal violet for 2 min. Slides were examined at 1000× with phase-contrast microscopy. For each experimental condition 200 UEC's are examined. Adherent bacteria were quantitated as described in previous Examples.

[5] = system: S. sobrinus glucosyltransferase; assay: Purified S. sobrinus glucosyltransferase treated with asparaginase; type: biochemical
Procedure: Glucosyltransferase activity was detected as described in the art, with some modifications described hereinbelow. Protein samples were mixed with electrophoresis sample buffer and incubated for 1 to 4 h at 37° C. before the gel was run. Nonfixed gels were incubated in 50 mM sodium acetate (pH 5.5) containing 1% vol/vol Triton X-100, 2 % (wt/vol) sucrose, and 0.07% (wt/vol) NaN3 at 37° C. for 24 h. Gels were also incubated in the same buffer with glucan T2000 (2 to 4 mg/ml) or fluorescein isothiocyanate-conjugated glucan T-10 (2 mg/ml) to detect both glucosyltransferases and glucan binding proteins (GBPs). After incubation, the gels were fixed for 30 min in 75% ethanol and rocked on a shaker for 30 min with 0.7% periodic acid in 5% acetic acid. The gels were then shaken for 1 h in 0.2% (wt/vol) sodium metabisulfite in 5% acetic acid. After two additional treatments in sodium metabisulfate and acetic acid, the gels were placed in Schiff's reagent for 0.5 to 1 h. Finally the gels were washed extensively in 45% methanol-45% acetic acid-10% H2O for destaining. In some experiments, purified protein was treated with 100 μg/ml polyphenol oxidase for 1 h, or with asparaginase, before loading on the gel.

[6] = system: endogenous bacteria attached to UECs; assay: Removal of endogenous biota from sloughed urinary epithelial cells; type: cell-based; conditions: for Percent UECs with ≧30 Bacteria Attached: PBS 30
Procedure: Sloughed epithelial cells were incubated with the enzymes, collected by filtration, transferred to microscope slides and stained with crystal violet. Then 50 epithelial cells from each slide were randomly assessed for the numbers of bacteria associated with them and placed into one of four categories: Cells with 0-9, 10-29, 30-49, or >50 bacteria associated with them.

[7] = ampicillin 1 mg/ml to 0.015 mg/ml, polyphenol oxidase 1128 to 17.5 units/ml, asparaginase 20 to 0.31 units/ml, data not shown

B1: asparaginase: enzyme that catalyzes hydrolysis of the side chain amide group of asparagine to a carboxyl group; E. coli asparaginase (protein, UniProt P00805 23-348, looked up)
L-asparaginase 2: LPNITILATGGTIAGGGDSATKSNYTVGKVGVENLVNAVPQLKDIANVKGEQVVNIGSQDMNDNVWLTLAKKINTDCDKTDGFVITHGTDTMEETAYFLDLTVKCDKPVVMVGAMRPSTSMSADGPFNLYNAVVTAADKASANRGVLVVMNDTVLDGRDVTKTNTTDVATFKSVNYGPLGYIHNGKIDYQRTPARKHTSDTPFDVSKLNELPKVGIVYNYANASDLPAKALVDAGYDGIVSAGVGNGNLYKSVFDTLATAAKTGTAVVRSSRVPTGATTQDAEVDDAKYGFVASGTLNPQKARVLLQLALTQTKDPQQIQQIFNQY
- decrease in adhesion to UECs ([1]; asparaginase <2 units/ml): 13%
- decrease in adhesion to UECs ([1]; asparaginase >2 units/ml): 85-90%
- prevention of adhesion to UECs ([1]; asparaginase singly, 10 units/ml): 90%
- reduction in adhesion to UECs ([1]; bacteria first incubated with MUMB 50 mM, then polyphenol oxidase 141 units/ml or asparaginase 10 units/ml): 50%
- increase in adhesion to UECs ([1]; mannopyranoside 50 mM followed by asparaginase 10 units/ml): 40%
- trypsin-like activity (BAPNA hydrolysis) [2]: diminished
- inhibition of growth of two strains of E. coli [3]: did not significantly inhibit growth
- inhibition of growth of P-fimbriated E. coli [3, 7]: Neither polyphenol oxidase (1128 units/ml to 17.5 units/ml) or asparaginase (20 units/ml to 0.31 units/ml) concentrations tested were able to inhibit the growth
- inhibition of growth of type 1-fimbriated E. coli [3, 7]: Neither polyphenol oxidase (1128 units/ml to 17.5 units/ml) or asparaginase (20 units/ml to 0.31 units/ml) concentrations tested were able to inhibit the growth
- adhesion of S. pneumoniae to buccal cells (S. pneumoniae): able to reduce adhesion
- Absorbance (collagen) (S. pyogenes; S. pyogenes M4, untreated 0.19): 0.10
- Absorbance (collagen) (S. pyogenes; S. pyogenes M24, untreated 0.31): 0.13
- binding of bacteria to urinary epithelial cells [4]: reduced binding
- binding by the glucosyltransferase to high molecular weight dextrans [5]: reduced binding
- activity gel (hydrolysis of sucrose following renaturation of an SDS-PAGE gel) ([5]; not shown): loss of activity
- glucan binding, enhanced chemiluminescence gel ([5]; not shown): loss of glucan binding
- numbers of UECs with large numbers of endogenous bacteria [6]: little or no effect
- Percent UECs with ≧30 Bacteria Attached ([6]; asparaginase 5 U/ml, 30 minute incubation): 28%
- Percent UECs with ≧30 Bacteria Attached ([6]; asparaginase 10 U/ml, 30 minute incubation): 26%
- effects on the numbers of endogenous bacteria attached to UECs ([6]; polyphenol oxidase 70 or 140 U/ml, asparaginase 5 or 10 U/ml, 30 minute incubation): relatively minor effects
